Test results from patent US11708418.

Legend:
[1] = target: Daratumumab (Darzalex; lot GHS0901, Janssen, USA); experiment: anti-CD38 (DARATUMUMAB) inhibition IAT, ability to titrate the antibody, CD38ecd-Fc-10H as reference
[2] = target: Daratumumab (Darzalex; lot GHS0901, Janssen, USA); experiment: IAT inhibition; 25 µl Darzalex dilution with 2 µl of 8.5 mg/ml protein

CD38ecd-flex-Fc-10H, sequence (P28907 45-300): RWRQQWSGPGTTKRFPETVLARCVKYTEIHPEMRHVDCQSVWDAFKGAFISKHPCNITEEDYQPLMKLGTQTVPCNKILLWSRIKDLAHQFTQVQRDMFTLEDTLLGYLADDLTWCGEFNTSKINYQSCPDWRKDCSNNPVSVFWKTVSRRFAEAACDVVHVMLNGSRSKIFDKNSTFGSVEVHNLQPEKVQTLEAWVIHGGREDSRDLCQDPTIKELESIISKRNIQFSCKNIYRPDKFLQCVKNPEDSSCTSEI
CD38ecd-Fc, sequence (P28907 45-300 limits assumed): as the sequence (P28907 45-300) above

| Functionality [1] [%] | anti-CD38 concentration completely inhibited [2] [mg/mL] | Substance |
| --- | --- | --- |
| 50 |  | CD38ecd-Fc (from UniProt P28907 45-300) (Fc fusion) |
| 100 | 0.125 | CD38ecd-flex-Fc-10H (from UniProt P28907 45-300) (Fc fusion) |
